Test results taken from US20080095768A1 (PDL BIOPHARMA, published 2008).

Target: T1, human CS1 (CD2-subset1) (human, UniProt Q9NQ25 23-335)
T1 construct: Endogenous CS1 on primary myeloma cells / CD138+ tissue plasma cells; also called SLAMF7; CRACC
Experiment: flow cytometry on primary myeloma cells and IHC on normal tissues, using HuLuc63 as the detecting antibody
Protocol: Gene expression was assessed using an Affymetrix GeneChip array. Protein expression was measured by flow cytometry, and immunohistochemistry (IHC), using HuLuc63, a novel humanized anti-CS1 mAb. HuLuc63-mediated lysis of myeloma cells via antibody dependent cellular cytotoxicity (ADCC) was measured by ⁵¹Cr-release.
CS1 mRNA was detected in CD138+ purified plasma cells from >95% of healthy donors, newly diagnosed myeloma patients, and those with relapsed myeloma (FIG. 1). […] Finally, we determined that HuLuc63 could induce killing of myeloma cells using purified allogeneic NK cells (FIG. 2). […] Our data support the potential clinical utility of CS1-targeted therapy.

B1: HuLuc63 (antibody, IgG1, V domains shown)
VH: EVQLVESGGGLVQPGGSLRLSCAASGFDFSRYWMSWVRQAPGKGLEWIGEINPDSSTINYAPSLKDKFIISRDNAKNSLYLQMNSLRAEDTAVYYCARPDGNYWYFDVWGQGTLVTVSS
VL: DIQMTQSPSSLSASVGDRVTITCKASQDVGIAVAWYQQKPGKVPKLLIYWASTRHTGVPDRFSGSGSGTDFTLTISSLQPEDVATYYCQQYSSYPYTFGQGTKVEIK
notes: Humanized recombinant monoclonal IgG1; also called HyLuc63; humanized anti-CS1 mAb
  binding result: binds
